In patent publication US10729768B2, “Combination of anti-CD20 antibody and PI3 kinase selective inhibitor” (TG Therapeutics, Inc., priority 2012, dated 2020):

Legend:
Type in all cases: cell-based
CD20-positive cells = assay: B cell depletion from human whole blood (HWB), flow cytometry, CD20; settings: human whole blood, 24 hrs
Procedure: A flow cytometry assay was used to compare the ability of S-isomer of compound of formula A, Ublituximab (Ubx), and combinations thereof to deplete B cells from human whole blood (HWB). In this assay, 50 μl of HWB sample was treated with either S-isomer of a compound of formula A (1000 nM), UBX (100 μg/ml to 0.1 μg/ml), or UBX in combination with S-isomer of a compound of formula A at 1000 nM and incubated for 24 hrs at 37° C. and 5% CO2. 20 μl of treated sample was taken in a 1.5 ml centrifuge tube and labeled with CD45 FITC and CD19 PE or CD20 FITC antibody and incubated in the dark for 1 hour at RT. 1 ml of red blood cell (RBC) lysing solution was added, and tubes were centrifuged at 3000 rpm for 10 minutes. […] The tubes were vortexed, and 5000 events were acquired on a Guava® easyCyte™ flow cytometer and analyzed with Incyte Software.
Gated population of CD45-positive cells were further analyzed for CD19. The number of cells that were positive for CD45 and CD19 was calculated, and the data was expressed as the percentage of CD19 positive cells in the population. CD20-positive populations were gated with fluorescence positive minus unlabeled cells, and the data was expressed as the percentage of CD20-positive cells in the population. The loss of CD19/CD20 population from control was calculated and expressed as % depletion with respect to control.

DB Cells = assay: cell cycle assay, flow cytometry; settings: for G0/G1, percentage of the cell population / G2/M, percentage of the cell population / S, percentage of the cell population / Sub G0, percentage of the cell population: DB cells, 72 h
Procedure: (§1) A cell cycle assay reagent (Millipore) was used to determine the effect of S-isomer of a compound of formula A, UBX, and combinations thereof on the cell cycle in cancerous cells. […] The cells were transferred to microfuge tubes to receive 50 μl of cell cycle reagent and incubated for 30 minutes at RT away from light. Cells were then diluted with 300-400 μl PBS, and a minimum of 10,000 events were acquired on a Guava® easyCyte™ flow cytometer. The data was analyzed with Express Pro software and the percentage of the cell population in different cell cycle stages with respect to control was presented in histograms.

Raji Cells = assay: cell cycle assay, flow cytometry; settings: for G0/G1, percentage of the cell population / G2/M, percentage of the cell population / S, percentage of the cell population / Sub G0, percentage of the cell population: 72 h
Procedure: as §1

U266B1 cells = assay: cell cycle assay, flow cytometry; settings: for G0/G1, percentage of the cell population / G2/M, percentage of the cell population / S, percentage of the cell population / Sub G0, percentage of the cell population: 72 h
Procedure: as §1

Daudi cells = assay: cell cycle assay, flow cytometry; settings: for G0/G1, percentage of the cell population / G2/M, percentage of the cell population / S, percentage of the cell population / Sub G0, percentage of the cell population: 72 h
Procedure: as §1

B1: UBX: monoclonal antibody that targets a specific and unique epitope on CD20, bioengineered for enhanced clinical activity and potency (antibody, V domains shown)
VH: QAYLQQSGAELVRPGASVKMSCKASGYTFTSYNMHWVKQTPRQGLEWIGGIYPGNGDTSYNQKFKGKATLTVGKSSSTAYMQLSSLTSEDSAVYFCARYDYNYAMDYWGQGTSVTVSS
VL: QIVLSQSPAILSASPGEKVTMTCRASSSVSYMHWYQQKPGSSPKPWIYATSNLASGVPARFSGSGSGTSYSFTISRVEAEDAATYYCQQWTFNPPTFGGGTRLEIK
modifications: antibody fragment
reduction in CD20+ B-cells (CD20-positive cells): dose-dependent reduction
G0/G1, percentage of the cell population (DB Cells; UBX 0.001 ng/ml): 54.38
G2/M, percentage of the cell population (DB Cells; UBX 0.001 ng/ml): 34.02
S, percentage of the cell population (DB Cells; UBX 0.001 ng/ml): 9.45
Sub G0, percentage of the cell population (DB Cells; UBX 0.001 ng/ml): 0.59
G0/G1, percentage of the cell population (DB Cells; UBX 0.01 ng/ml): 54.99
G2/M, percentage of the cell population (DB Cells; UBX 0.01 ng/ml): 34.79
S, percentage of the cell population (DB Cells; UBX 0.01 ng/ml): 7.73
Sub G0, percentage of the cell population (DB Cells; UBX 0.01 ng/ml): 0.73
G0/G1, percentage of the cell population (DB Cells; UBX 0.1 ng/ml): 56.34
G2/M, percentage of the cell population (DB Cells; UBX 0.1 ng/ml): 38.40
S, percentage of the cell population (DB Cells; UBX 0.1 ng/ml): 12.34
Sub G0, percentage of the cell population (DB Cells; UBX 0.1 ng/ml): 1.10
G0/G1, percentage of the cell population (DB Cells; UBX 1 ng/ml): 51.36
G2/M, percentage of the cell population (DB Cells; UBX 1 ng/ml): 40.07
S, percentage of the cell population (DB Cells; UBX 1 ng/ml): 6.46
Sub G0, percentage of the cell population (DB Cells; UBX 1 ng/ml): 0.52
G0/G1, percentage of the cell population (DB Cells; UBX 10 ng/ml): 49.52
G2/M, percentage of the cell population (DB Cells; UBX 10 ng/ml): 40.56
S, percentage of the cell population (DB Cells; UBX 10 ng/ml): 10.07
Sub G0, percentage of the cell population (DB Cells; UBX 10 ng/ml): 0.56
G0/G1, percentage of the cell population (DB Cells; UBX 100 ng/ml): 45.98
G2/M, percentage of the cell population (DB Cells; UBX 100 ng/ml): 46.55
S, percentage of the cell population (DB Cells; UBX 100 ng/ml): 7.66
Sub G0, percentage of the cell population (DB Cells; UBX 100 ng/ml): 0.67
cell cycle effect (DB Cells; Diffuse Large B-cell Lymphoma (DB) cells, 72 hours): modest G2/M arrest
G0/G1, percentage of the cell population (Raji Cells; UBX 0.001 ng/ml): 50.52
G2/M, percentage of the cell population (Raji Cells; UBX 0.001 ng/ml): 33.66
S, percentage of the cell population (Raji Cells; UBX 0.001 ng/ml): 10.61
Sub G0, percentage of the cell population (Raji Cells; UBX 0.001 ng/ml): 4.35
G0/G1, percentage of the cell population (Raji Cells; UBX 0.01 ng/ml): 54.54
G2/M, percentage of the cell population (Raji Cells; UBX 0.01 ng/ml): 25.08
S, percentage of the cell population (Raji Cells; UBX 0.01 ng/ml): 12.65
Sub G0, percentage of the cell population (Raji Cells; UBX 0.01 ng/ml): 5.51
G0/G1, percentage of the cell population (Raji Cells; UBX 0.1 ng/ml): 41.11
G2/M, percentage of the cell population (Raji Cells; UBX 0.1 ng/ml): 22.00
S, percentage of the cell population (Raji Cells; UBX 0.1 ng/ml): 8.93
Sub G0, percentage of the cell population (Raji Cells; UBX 0.1 ng/ml): 23.73
G0/G1, percentage of the cell population (Raji Cells; UBX 1 ng/ml): 39.72
G2/M, percentage of the cell population (Raji Cells; UBX 1 ng/ml): 15.35
S, percentage of the cell population (Raji Cells; UBX 1 ng/ml): 14.82
Sub G0, percentage of the cell population (Raji Cells; UBX 1 ng/ml): 27.32
G0/G1, percentage of the cell population (Raji Cells; UBX 10 ng/ml): 45.01
G2/M, percentage of the cell population (Raji Cells; UBX 10 ng/ml): 12.90
S, percentage of the cell population (Raji Cells; UBX 10 ng/ml): 8.15
Sub G0, percentage of the cell population (Raji Cells; UBX 10 ng/ml): 31.86
G0/G1, percentage of the cell population (Raji Cells; UBX 100 ng/ml): 22.19
G2/M, percentage of the cell population (Raji Cells; UBX 100 ng/ml): 33.74
S, percentage of the cell population (Raji Cells; UBX 100 ng/ml): 11.05
Sub G0, percentage of the cell population (Raji Cells; UBX 100 ng/ml): 34.78
cell cycle effect (Raji Cells; 72 hours): increased the number of Sub GO cells
G0/G1, percentage of the cell population (U266B1 cells; UBX 0.001 ng/ml): 60.79
G2/M, percentage of the cell population (U266B1 cells; UBX 0.001 ng/ml): 30.49
S, percentage of the cell population (U266B1 cells; UBX 0.001 ng/ml): 6.00
Sub G0, percentage of the cell population (U266B1 cells; UBX 0.001 ng/ml): 1.34
G0/G1, percentage of the cell population (U266B1 cells; UBX 0.01 ng/ml): 59.32
G2/M, percentage of the cell population (U266B1 cells; UBX 0.01 ng/ml): 35.48
S, percentage of the cell population (U266B1 cells; UBX 0.01 ng/ml): 6.57
Sub G0, percentage of the cell population (U266B1 cells; UBX 0.01 ng/ml): 0.74
G0/G1, percentage of the cell population (U266B1 cells; UBX 0.1 ng/ml): 57.53
G2/M, percentage of the cell population (U266B1 cells; UBX 0.1 ng/ml): 35.64
S, percentage of the cell population (U266B1 cells; UBX 0.1 ng/ml): 7.63
Sub G0, percentage of the cell population (U266B1 cells; UBX 0.1 ng/ml): 1.35
G0/G1, percentage of the cell population (U266B1 cells; UBX 1 ng/ml): 58.81
G2/M, percentage of the cell population (U266B1 cells; UBX 1 ng/ml): 36.07
S, percentage of the cell population (U266B1 cells; UBX 1 ng/ml): 7.07
Sub G0, percentage of the cell population (U266B1 cells; UBX 1 ng/ml): 0.51
G0/G1, percentage of the cell population (U266B1 cells; UBX 10 ng/ml): 56.85
G2/M, percentage of the cell population (U266B1 cells; UBX 10 ng/ml): 37.86
S, percentage of the cell population (U266B1 cells; UBX 10 ng/ml): 6.34
Sub G0, percentage of the cell population (U266B1 cells; UBX 10 ng/ml): 0.78
G0/G1, percentage of the cell population (U266B1 cells; UBX 100 ng/ml): 52.95
G2/M, percentage of the cell population (U266B1 cells; UBX 100 ng/ml): 39.65
S, percentage of the cell population (U266B1 cells; UBX 100 ng/ml): 7.91
Sub G0, percentage of the cell population (U266B1 cells; UBX 100 ng/ml): 1.95
cell cycle effect (U266B1 cells; 72 hours): modest G2/M arrest
G0/G1, percentage of the cell population (Daudi cells; UBX 0.001 ng/ml): 38.12
G2/M, percentage of the cell population (Daudi cells; UBX 0.001 ng/ml): 41.95
S, percentage of the cell population (Daudi cells; UBX 0.001 ng/ml): 17.90
Sub G0, percentage of the cell population (Daudi cells; UBX 0.001 ng/ml): 2.03
G0/G1, percentage of the cell population (Daudi cells; UBX 0.01 ng/ml): 36.24
G2/M, percentage of the cell population (Daudi cells; UBX 0.01 ng/ml): 37.83
S, percentage of the cell population (Daudi cells; UBX 0.01 ng/ml): 19.15
Sub G0, percentage of the cell population (Daudi cells; UBX 0.01 ng/ml): 6.77
G0/G1, percentage of the cell population (Daudi cells; UBX 0.1 ng/ml): 37.40
G2/M, percentage of the cell population (Daudi cells; UBX 0.1 ng/ml): 32.42
S, percentage of the cell population (Daudi cells; UBX 0.1 ng/ml): 17.06
Sub G0, percentage of the cell population (Daudi cells; UBX 0.1 ng/ml): 13.42
G0/G1, percentage of the cell population (Daudi cells; UBX 1 ng/ml): 40.52
G2/M, percentage of the cell population (Daudi cells; UBX 1 ng/ml): 26.99
S, percentage of the cell population (Daudi cells; UBX 1 ng/ml): 17.54
Sub G0, percentage of the cell population (Daudi cells; UBX 1 ng/ml): 14.95
G0/G1, percentage of the cell population (Daudi cells; UBX 10 ng/ml): 40.92
G2/M, percentage of the cell population (Daudi cells; UBX 10 ng/ml): 28.08
S, percentage of the cell population (Daudi cells; UBX 10 ng/ml): 13.23
Sub G0, percentage of the cell population (Daudi cells; UBX 10 ng/ml): 17.77
G0/G1, percentage of the cell population (Daudi cells; UBX 100 ng/ml): 43.66
G2/M, percentage of the cell population (Daudi cells; UBX 100 ng/ml): 28.55
S, percentage of the cell population (Daudi cells; UBX 100 ng/ml): 9.28
Sub G0, percentage of the cell population (Daudi cells; UBX 100 ng/ml): 19.55
cell cycle effect (Daudi cells; 72 hours): increased the number of Sub GO cells
